Experimental data taken from patent publication US20200361992A1 (PROTAGONIST THERAPEUTICS, published 2020).
Starred links: 1 amine or outer side, 2 acyl side, 3 side chain; linkers in the order of their positions; H or OH if unused. Positions of bridges follow the written chain, without caps; N, C: chain ends. Non-standard residues stand in square brackets, D forms with d. Groups on a side chain read outwards from the residue. Primed or numbered codes have the meaning given here. *: point of attachment. PEG4′ = bifunctional PEG linker with 4 polyethylene glycol units; PEG12 = NCCOCCOCCOCCOCCOCCOCCOCCOCCOCCOCCOCCOCCC(=O)O; Phe(4-tBu) = CC(C)(C)c1ccc(C[C@H](N)C(=O)O)cc1; Phe(3,4-F2) = N[C@@H](Cc1ccc(F)c(F)c1)C(=O)O; Docosanoyl = CCCCCCCCCCCCCCCCCCCCCC(=O)*; Dip = N[C@H](C(=O)O)C(c1ccccc1)c1ccccc1; γGlu = O=C(O)[C@H](CCC(=O)[*:2])N[*:1]; 2Nal = N[C@@H](Cc1ccc2ccccc2c1)C(=O)O; AEF = NCCOc1ccc(C[C@H](N)C(=O)O)cc1; Palmitoyl = CCCCCCCCCCCCCCCC(=O)*; β3hF = N[C@H](CC(=O)O)Cc1ccccc1; Pen = CC(C)(S)[C@H](N)C(=O)O; Isovaleryl = CC(C)CC(=O)*; PEG2′ = not defined here; PEG8′ = not defined here; Npc = nipecotic acid; Ahx = NCCCCCC(=O)O; βAla = NCCC(=O)O

Target: T1, human ferroportin (SLC40A1) fused with GFP, stably expressed in HEK293 cells (human, UniProt Q9NP59 1-571)
T1 sequence (looked up): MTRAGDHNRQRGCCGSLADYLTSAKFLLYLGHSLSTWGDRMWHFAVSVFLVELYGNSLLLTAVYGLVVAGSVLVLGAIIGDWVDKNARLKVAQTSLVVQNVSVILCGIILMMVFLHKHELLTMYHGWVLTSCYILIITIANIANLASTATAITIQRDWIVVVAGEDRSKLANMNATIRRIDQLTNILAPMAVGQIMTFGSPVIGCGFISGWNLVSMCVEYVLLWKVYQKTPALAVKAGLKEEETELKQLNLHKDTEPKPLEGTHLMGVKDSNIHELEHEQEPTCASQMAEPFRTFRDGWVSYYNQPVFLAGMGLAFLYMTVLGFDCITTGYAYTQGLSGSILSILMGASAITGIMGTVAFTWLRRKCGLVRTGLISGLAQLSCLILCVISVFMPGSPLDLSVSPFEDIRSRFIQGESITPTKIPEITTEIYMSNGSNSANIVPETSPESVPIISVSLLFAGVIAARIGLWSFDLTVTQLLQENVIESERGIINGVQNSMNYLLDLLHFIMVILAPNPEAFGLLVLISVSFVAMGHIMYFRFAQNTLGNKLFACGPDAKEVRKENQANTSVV
Assay: cell-based or functional assay

Binder: Isovaleryl-DTH[Dip][Npc]CI[dK]FK([PEG12-Palmitoyl])[dK]C-NH2 (disulfide 6-12 (inferred)) [Compd ID 117]
- FPN IC50: 2 nM

Binder: Isovaleryl-DTHFPCI[dK]FK([PEG4′-Palmitoyl])KC-NH2 (disulfide 6-12 (inferred)) [Compd ID 91]
- FPN IC50: 14 nM

Binder: Isovaleryl-DTHFPCI[dK]FK([PEG4′-γGlu-Palmitoyl])KC-NH2 (disulfide 6-12 (inferred)) [Compd ID 94]
- FPN IC50: 9 nM

Binder: DTHFPCIKXKKC (Isovaleric acid-DTHFPCI-[(D)Lys]-[Nal]-Lys[PEG11-Palm]-K-[Cys]-NH2) [Compd ID 102]
- FPN IC50: 17 nM

Binder: Isovaleryl-DTH[Dip][Npc]CI[dK][2Nal]K([PEG12-Palmitoyl])KC-NH2 (disulfide 6-12 (inferred)) [Compd ID 112]
- FPN IC50: 4 nM

Binder: Isovaleryl-DTH[Dip][Npc]CI[dK][AEF]K([PEG12-Palmitoyl])KC-NH2 (disulfide 6-12 (inferred)) [Compd ID 111]
- FPN IC50: > 3000 nM

B1: Compd ID 122 (peptide)
peptide: DTHXPCIKXKKC
modifications: Isovaleric acid-DTH-[Dpa]-PCI-[(D)Lys]-[b-hPhe]-[Lys(Peg11-Palm)]-[(D)Lys]-C-NH2
- FPN IC50: 5 nM

Binder: Isovaleryl-DTHFPCI[dK]FK([PEG8′-Palmitoyl])KC-NH2 (disulfide 6-12 (inferred)) [Compd ID 95]
- FPN IC50: 28 nM

Binder: DTHXPCIKFKXC (Isovaleric acid-DTH-[Dpa]-PCI-[(D)Lys]-F-[Lys(Peg11-Palm)]-[Orn]-C-NH2) [Compd ID 136]
- FPN IC50: 27 nM

Binder: DTHFPCIKXKKC (Isovaleric acid-DTHFPCI-[(D)Lys]-[bhomoPhe]-Lys[PEG11-Palm]-K-[Cys]-NH2) [Compd ID 103]
- FPN IC50: 20 nM

Binder: DTHFPCIKXKKC (Isovaleric acid-DTHFPCI-[(D)Lys]-[b-homoPhe]-Lys[PEG11-Palm]-K-[Cys]-NH2) [Compd ID 101]
- FPN IC50: 24 nM

Binder: DTHXPCIKFKKC (Isovaleric acid-DTH-[Dpa]-PCI-[(D)Lys]-F-[Lys(Peg11-Palm)]-[(D)Lys]-C-NH2) [Compd ID 139]
- FPN IC50: 19.5 nM

Binder: DTHXPCIKFKKC (Isovaleric acid-DTH-[a-MePhe]-PCI-[(D)Lys]-F-[Lys(Peg11-Palm)]-[(D)Lys]-C-NH2) [Compd ID 128]
- FPN IC50: 204 nM

Binder: Isovaleryl-DTHFPCI[dK]FK([PEG2′-PEG2′-Ahx-Palmitoyl])KC-NH2 (disulfide 6-12 (inferred)) [Compd ID 90]
- FPN IC50: 11 nM

B2: Compd ID 134 (peptide)
peptide: DTHXPCIKFKKX
modifications: Isovaleric acid-DTH-[Dpa]-PCI-[(D)Lys]-F-[Lys(Peg11-Palm)]-[(D)Lys]-[N-Me-Cys]-NH2
- FPN IC50: 22.5 nM

Binder: Isovaleryl-DTHFPCI[dK]FK([PEG12-Palmitoyl])K[dC]-NH2 (disulfide 6-12 (inferred)) [Compd ID 97]
- FPN IC50: 41 nM

Binder: DTHXPCIKFKKC (Isovaleric acid-DTH-[b-hPhe]-PCI-[(D)Lys]-F-[Lys(Peg11-Palm)]-[(D)Lys]-C-NH2) [Compd ID 121]
- FPN IC50: 9 nM

Binder: Isovaleryl-DTHF[Npc]CI[dK]FK([PEG12-Palmitoyl])[dK]C-NH2 (disulfide 6-12 (inferred)) [Compd ID 118]
- FPN IC50: 6 nM

Binder: DTHXPCIKXKKC (Isovaleric acid-DTH-[Dpa]-PCI-[(D)Lys]-[Dpa]-[Lys(Peg11-Palm)]-[(D)Lys]-C-NH2) [Compd ID 131]
- FPN IC50: 14 nM

Binder: Isovaleryl-DTH[Dip][Npc]CI[dK][Phe(3,4-F2)]K([PEG12-Palmitoyl])KC-NH2 (disulfide 6-12 (inferred)) [Compd ID 127]
- FPN IC50: 3 nM

Binder: DTHXPCIKFKKC (Isovaleric acid-D-T-H-[Dpa]-P-C-I-[(D)Lys]-F-Lys[PEG11-Palm]-K-[Cys]-NH2) [Compd ID 104]
- FPN IC50: 27 nM

Binder: DTHFPXIKFKKX (Isovaleric acid-DTHFP-[a-MeCys]-I-[(D)Lys]-F-[Lys(Peg11-Palm)]-K-[a-MeCys]-NH2) [Compd ID 115]
- FPN IC50: 4 nM

Binder: DTHXPCIKFKXX (Isovaleric acid-DTH-[Dpa]-PCI-[(D)Lys]-F-[Lys(Peg11-Palm)]-[Dap]-[Pen]-NH2) [Compd ID 140]
- FPN IC50: 51 nM

Binder: Isovaleryl-DTHFPCI[dK]FK([PEG4′-Ahx-Palmitoyl])KC-NH2 (disulfide 6-12 (inferred)) [Compd ID 92]
- FPN IC50: 21 nM

Binder: Isovaleryl-DIH[Dip]PCI[dK]FK([PEG12-Palmitoyl])[dK]C-NH2 (disulfide 6-12 (inferred)) [Compd ID 130]
- FPN IC50: 169 nM

Binder: Isovaleryl-DTH[Dip][Npc]CI[dK][Phe(4-tBu)]K([PEG12-Palmitoyl])KC-NH2 (disulfide 6-12 (inferred)) [Compd ID 110]
- FPN IC50: 3 nM

Binder: Isovaleryl-DTHFPCIFK([PEG12-Palmitoyl])KC-NH2 (disulfide 6-11 (inferred)) [Compd ID 106]
- FPN IC50: 40 nM

B3: Compd ID 105 (peptide)
peptide: DTHXPCIKXKKC
modifications: Isovaleric acid-D-T-H-[Dpa]-P-C-I-[(D)Lys]-[b-homoPhe]-Lys[PEG11-Palm]-[(D)Lys]-[Cys]-NH2
- FPN IC50: 31 nM

Binder: Isovaleryl-DTH[Dip]PCI[βAla][β3hF]K([PEG12-Palmitoyl])[dK]C-NH2 (disulfide 6-12 (inferred)) [Compd ID 145]
- FPN IC50: 18 nM

Binder: Isovaleryl-DTH[Dip][Npc]CI[dK]FK([PEG12-Palmitoyl])KC-NH2 (disulfide 6-12 (inferred)) [Compd ID 109]
- FPN IC50: 2 nM

Binder: DTHFPXIKFKKC (Isovaleric acid-DTHFP-[a-MeCys]-I-[(D)Lys]-F-[Lys(Peg11-Palm)]-K-C-NH2) [Compd ID 116]
- FPN IC50: 11 nM

Binder: DTHXPCIKFKXC (Isovaleric acid-DTH-[Dpa]-PCI-[(D)Lys]-F-[Lys(Peg11-Palm)]-[b-hLys]-C-NH2) [Compd ID 138]
- FPN IC50: 20.5 nM

B4: Compd ID 120 (peptide)
peptide: DTHXPCIKFKKC
modifications: Isovaleric acid-DTH-[Phe(4-COOH)-PCI-[(D)Lys]-F-[Lys(Peg11-Palm)]-[(D)Lys]-C-NH2
- FPN IC50: > 1000 nM

Binder: Isovaleryl-DTHFPCI[dK]FK([PEG4′-PEG4′-Palmitoyl])KC-NH2 (disulfide 6-12 (inferred)) [Compd ID 93]
- FPN IC50: 18 nM

Binder: Isovaleryl-DTHFPCI[dK]FK(Docosanoyl)KC-NH2 (disulfide 6-12 (inferred)) [Compd ID 96]
- FPN IC50: 30 nM

Binder: DTHFPCIKFKXC (Isovaleric acid-DTHFPCI-[(D)Lys]-F-Lys[PEG11-Palm]-Dap-[Cys]-NH2) [Compd ID 99]
- FPN IC50: 21 nM

Binder: Isovaleryl-DTHFPCI[dK]FK([PEG12-Palmitoyl])CK-NH2 (disulfide 6-11 (inferred)) [Compd ID 144]
- FPN IC50: 32 nM

Binder: DTHFPCIKFKKX (Isovaleric acid-DTH-F-PCI-[(D)Lys]-F-[Lys(Peg11-Palm)]-K-[a-MeCysl-NH2) [Compd ID 114]
- FPN IC50: 3 nM

Binder: DTHXPXIKFKXC (Isovaleric acid-DTH-[Dpa]-P-[Hcy]-I-[(D)Lys]-F-[Lys(Peg11-Palm)]-[Dap]-C-NH2) [Compd ID 141]
- FPN IC50: 26.5 nM

Binder: DTHFPCIKXKKC (Isovaleric acid-DTHFPCI-[(D)Lys]-[Dpa]-Lys[PEG11-Palm]-K-[Cys]-NH2) [Compd ID 100]
- FPN IC50: 16 nM

Binder: DTHFPCIKFKPCK (Isovaleric acid-DTHFPCIKF-Lys[PEG11-Palm]-PCK-NH2) [Compd ID 9]
- FPN IC50: 15 nM

Binder: DTHXPCIKFKKX (Isovaleric acid-DTH-[Dpa]-PCI-[(D)Lys]-F-[Lys(Peg11-Palm)]-[(D)Lys]-Pen-NH2) [Compd ID 132]
- FPN IC50: 4 nM

Binder: DTHXPCIKFKKX (Isovaleric acid-DTH-[Dpa]-PCI-[(D)Lys]-F-[Lys(Peg11-Palm)]-K-[N-Me-Cys]-NH2) [Compd ID 133]
- FPN IC50: 13.5 nM

Binder: DTHXPCIKFKXC (Isovaleric acid-DTH-[Dpa]-PCI-[(D)Lys]-F-[Lys(Peg11-Palm)]-[Dab]-C-NH2) [Compd ID 137]
- FPN IC50: 23 nM

Binder: DTHFPCIKFKPC (Isovaleric acid-DTHFPCIKF-Lys[PEG11-Palm]-PC-NH2) [Compd ID 7]
- FPN IC50: 10 nM

Binder: DTHFPCIKFKPRC (Isovaleric acid-DTHFPCIKF-Lys[PEG11-Palm]-PRC-NH2) [Compd ID 6]
- FPN IC50: 17 nM

Binder: DTHFPCIKFKC (Isovaleric acid-DTHFPCIKF-Lys[PEG11-Palm]-C-NH2) [Compd ID 8]
- FPN IC50: 6 nM

Binder: Isovaleryl-DTHFPCI[dK]F[dK]([PEG12-Palmitoyl])[dK]C-NH2 (disulfide 6-12 (inferred)) [Compd ID 107]
- FPN IC50: 60 nM

Binder: DTHXPCIKFKC (Isovaleric acid-DTH-[Dpa]-PCI-[(D)Lys]-F-[Lys(Peg11-Palm)]-C-NH2) [Compd ID 135]
- FPN IC50: 22 nM

Binder: Isovaleryl-DTHFPCI[dK]FK([PEG12-Palmitoyl])K[Pen]-NH2 (disulfide 6-12 (inferred)) [Compd ID 98]
- FPN IC50: 40 nM

B5: Compd ID 142 (peptide)
peptide: DTHXPXIKFKXX
modifications: Isovaleric acid-DTH-[Dpa]-P-[Hcy]-I-[(D)Lys]-F-[Lys(Peg11-Palm)]-[Dap]-[Hcy]-NH2
- FPN IC50: 12 nM

Binder: DTHXPCIKFKXX (Isovaleric acid-DTH-[Dpa]-PCI-[(D)Lys]-F-[Lys(Peg11-Palm)]-[Dap]-[Hcy]-NH2) [Compd ID 143]
- FPN IC50: 18 nM
